± gives the standard error. Fewer inactive variants are shown than the library holds.
B1: glmS ribozyme (parent)
chain: AUAAAAGCGCCAGAACUACAGAAAUGUAGUUGACGAGGAGGAGGUUUAUCGAAUUUUCGGCGGAUGCCUCCAAA

Variants of: B1
Experiment: self-cleavage kobs at 10000 uM GlcN6P; higher = faster cleavage; RNA array
Conditions: with glucosamine-6-phosphate
Procedure, shortened: (§1)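 Tiles bearing barcoded ribozyme variants, transcribed in situ by E. coli RNA polymerase on sequenced MiSeq chips, were imaged over ~14 h at 37 °C using a hybridised Cy3 probe. Glucosamine-6-phosphate was supplied at 40 μM to 10 mM in HEPES/KCl/Mg(OAc)2 buffer. kobs came from one- or two-exponential decay fits to normalised per-tile medians, and weighted Michaelis–Menten fits then provided kcat and KM.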

Variant	self-cleavage kobs at 10000 uM GlcN6P [s⁻¹]
A6G C58U A64U	< 1e-05
C8A C34A A64G	< 1e-05
A14U G43U G51A	< 1e-05
C11G G60U U69G	< 1e-05
A14U A64C	2.75e-05 ± 1.3e-05
G7U G9U G44A C68G	< 1e-05
A12U G59A C67G	4.16e-05 ± 1.6e-05
C8U A39C G41A U57C G59U	< 1e-05
A12U A33C C34U C70G	< 1e-05
A14G C16A G40C G63U	< 1e-05
C10U A33G G35C U45G C68U	< 1e-05
A6U A33G C34U G44U U49C U57G	< 1e-05
C8U U57A U69G	0.000575 ± 0.00016
C8A A14U A15G G29A	< 1e-05
C10G C34A C67G	0.00066 ± 0.00026
A15U G44U	3.08e-05 ± 1.4e-05
A14C G38C G60U	< 1e-05
A6C G9C C50A C58A A64U C70G	< 1e-05
C16A G51U U65A	< 1e-05
C16A C50A U65G	< 1e-05
G13U U54A U56C	0.000163 ± 3.3e-05
G7A G29A G38A G44U A48G G66U	< 1e-05
G13C G43A	< 1e-05
C8G G9U G66C C68G	< 1e-05
A12C G37A A39C	0.000849 ± 0.00015
C11U A52G G63C U69G	8.28e-05 ± 1.9e-05
A14U C19U C58G	9.16e-05 ± 2.1e-05

Variant	self-cleavage kobs at 10000 uM GlcN6P [s⁻¹]
C8A G35U G44U A52G	< 1e-05
A4U A39G C70A	0.000171 ± 4.7e-05
G13C G32A U45G A52C C70U	< 1e-05
C11U G32A A42G A53U	9.31e-05 ± 2.5e-05
C16A G35U G60U	< 1e-05
A6G U55G C70U	8.99e-05 ± 1.5e-05
C11A G40A U55G C71G	< 1e-05
C11G A42U C50G C67U	0.000569 ± 0.00021
A14G U30G U47C	0.00168 ± 0.00041
G9A A33U U69C	< 1e-05
G9A C34A A64G C70G	< 1e-05
A12G C58A C71A	5.83e-05 ± 1.4e-05
G7C A14U U47A	< 1e-05
G7A U30A A39C A48C	< 1e-05
G7C G35U G38U	< 1e-05
A14C G51U	< 1e-05
A14U A53C C67U	0.000208 ± 3.8e-05
G9C C11U C61G	0.000219 ± 4.5e-05
G13C G40A	2.64e-05 ± 9.8e-06
A15C A53U C71G	0.000151 ± 3.6e-05
G9C G38C G43U	< 1e-05
G7U C61U C70A	< 1e-05
A6G C16A G37C U69C	< 1e-05
A12C C16G U49A C68A	< 1e-05
A15U G41U A48U U55C	< 1e-05
A6U A14U G29U	< 1e-05
U2C C11U G59U	0.000103 ± 2.1e-05

Variant	self-cleavage kobs at 10000 uM GlcN6P [s⁻¹]
C8G A14C C68G	< 1e-05
C10U G13C G51A A53U A64G G66A	< 1e-05
A12C G38U A52U C58A U65A C67U	< 1e-05
A6U A53C	5.75e-05 ± 9.2e-06
C8G G43C C50U	< 1e-05
A14U U30G U55G C70A	3.35e-05 ± 1.5e-05
C10A C11G C16G A48U C50G C70A	6.85e-05 ± 1.8e-05
C10G G40U U55A C61U	< 1e-05
C8A G44A U46G C70G	< 1e-05
A6C U31C G35A A42C	< 1e-05
C8A A36G U57C	< 1e-05
C8A A42G G66U	< 1e-05
C16G G32U C70U	0.000712 ± 0.00013
C10A C16U A52C	< 1e-05
C11U A64U C67G	< 1e-05
A15U C50A G51A A53G	< 1e-05
A15G G63U A64G	< 1e-05
A15U G29C U47G U54A	0.000122 ± 2.4e-05
C10A A14C U30G	< 1e-05
G13A U46A	4.05e-05 ± 1.3e-05
C10U A33U G37C A53U U57A A64G	< 1e-05
G13C U65A	< 1e-05
C8U U31C A39U G66C	< 1e-05
A6C G32U C50A	< 1e-05
G7U C50G G51A C70G	6.12e-05 ± 1.7e-05

Variants of: B1
Experiment: self-cleavage kobs at 2500 uM GlcN6P; higher = faster cleavage; RNA array
Conditions: with glucosamine-6-phosphate
Procedure, shortened: as §1

Variant	self-cleavage kobs at 2500 uM GlcN6P [s⁻¹]
C58U C61G G66U	6.41e-05 ± 2.3e-05
G66A C67U C70U	0.000488 ± 0.00017
G59U G66C	< 1e-05
G62U C68U C71A	< 1e-05
